T1: LNX2_2, Q8N448
T1 sequence (Q8N448 334-432, limits assumed, looked up): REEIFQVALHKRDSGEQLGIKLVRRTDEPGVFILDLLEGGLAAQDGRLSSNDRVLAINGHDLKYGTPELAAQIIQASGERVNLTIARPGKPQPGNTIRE

T2: SNTG2, Q9NY99
T2 sequence (Q9NY99 68-166, limits assumed, looked up): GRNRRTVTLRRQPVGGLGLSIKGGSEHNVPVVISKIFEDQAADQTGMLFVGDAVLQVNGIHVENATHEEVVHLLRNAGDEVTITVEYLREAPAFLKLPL

T3: PTPN13_1, Q12923
T3 sequence (Q12923 1088-1188, limits assumed, looked up): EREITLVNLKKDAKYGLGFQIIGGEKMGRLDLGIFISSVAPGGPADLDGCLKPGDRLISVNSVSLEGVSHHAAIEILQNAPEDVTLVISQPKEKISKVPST

T4: SHANK1, Q9Y566
T4 sequence (Q9Y566 658-767, limits assumed, looked up): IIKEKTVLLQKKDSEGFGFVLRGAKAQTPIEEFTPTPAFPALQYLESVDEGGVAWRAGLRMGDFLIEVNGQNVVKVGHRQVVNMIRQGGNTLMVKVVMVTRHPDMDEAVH

T5: DFNB31_1, Q9P202
T5 sequence (Q9P202 135-233, limits assumed, looked up): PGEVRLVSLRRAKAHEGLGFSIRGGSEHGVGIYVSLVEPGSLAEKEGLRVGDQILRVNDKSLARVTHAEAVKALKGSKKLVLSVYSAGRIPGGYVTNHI

T6: PARD3B_1, Q8TEW8
T6 sequence (Q8TEW8 196-299, limits assumed, looked up): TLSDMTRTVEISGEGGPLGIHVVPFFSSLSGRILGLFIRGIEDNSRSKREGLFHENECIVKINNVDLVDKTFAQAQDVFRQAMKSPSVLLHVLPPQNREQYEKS

T7: MPP2, Q14168
T7 sequence (Q14168 180-250, limits assumed, looked up): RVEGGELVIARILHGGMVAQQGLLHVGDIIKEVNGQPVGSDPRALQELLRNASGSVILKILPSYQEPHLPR

T8: PDZD7_3, Q9H5P4
T8 sequence (Q9H5P4 857-944, limits assumed, looked up): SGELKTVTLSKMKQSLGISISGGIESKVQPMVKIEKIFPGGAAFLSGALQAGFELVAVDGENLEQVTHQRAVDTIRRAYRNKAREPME

T9: GRIP1_4, Q9Y3R0
T9 sequence (Q9Y3R0 467-571, limits assumed, looked up): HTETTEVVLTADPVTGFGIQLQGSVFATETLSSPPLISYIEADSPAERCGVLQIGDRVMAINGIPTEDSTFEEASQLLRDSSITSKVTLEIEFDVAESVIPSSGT

T10: SIPA1L2, Q9P2F8
T10 sequence (Q9P2F8 945-1036, limits assumed, looked up): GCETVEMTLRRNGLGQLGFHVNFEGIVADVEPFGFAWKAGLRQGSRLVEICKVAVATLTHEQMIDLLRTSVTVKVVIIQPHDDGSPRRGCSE

T11: DLG3_3, Q92796
T11 sequence (Q92796 374-475, limits assumed, looked up): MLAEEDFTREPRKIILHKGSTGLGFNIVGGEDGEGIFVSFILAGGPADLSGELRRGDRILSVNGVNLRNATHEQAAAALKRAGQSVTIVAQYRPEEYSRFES

B1: NOSTRIN, Q8IVI9 (peptide)
chain: SNAGNTATKA
B2: DACT1, Q9NYF0 (peptide)
chain: SGSLKLMTTV

Target: LNX1_1, Q8TBB1
Assay: holdup assay
Set-up: key: below the threshold = too weak to quantify, mostly under pKd 3.1 to 4
Conditions: plain residues with an end cap or a label only (N-terminal biotin on a linker: ado-ado)

LNX1_1, Q8TBB1, sequence (Q8TBB1 261-371): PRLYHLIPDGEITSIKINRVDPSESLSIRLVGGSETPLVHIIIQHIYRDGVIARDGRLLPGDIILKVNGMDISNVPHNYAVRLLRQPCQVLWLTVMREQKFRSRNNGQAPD

Binder | pKd
B1 | below the threshold
B2 | 4.04

Target: FRMPD4, Q14CM0
Assay: holdup assay
Set-up: key: below the threshold = too weak to quantify, mostly under pKd 3.1 to 4
Conditions: plain residues with an end cap or a label only (N-terminal biotin on a linker: ado-ado)

FRMPD4, Q14CM0, sequence (Q14CM0 67-160): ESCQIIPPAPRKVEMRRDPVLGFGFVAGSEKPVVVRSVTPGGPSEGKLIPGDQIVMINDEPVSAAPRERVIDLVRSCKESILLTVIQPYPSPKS

Binder | pKd
B1 | below the threshold
B2 | below the threshold

Target: NHERF4_2, Q86UT5
Assay: holdup assay
Set-up: key: below the threshold = too weak to quantify, mostly under pKd 3.1 to 4
Conditions: plain residues with an end cap or a label only (N-terminal biotin on a linker: ado-ado)

NHERF4_2, Q86UT5, sequence (Q86UT5 220-308): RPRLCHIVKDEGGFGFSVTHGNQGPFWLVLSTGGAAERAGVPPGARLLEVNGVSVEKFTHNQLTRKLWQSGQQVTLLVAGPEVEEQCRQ

Binder | pKd
B1 | below the threshold
B2 | below the threshold

Target: T1, LNX2_2, Q8N448
Assay: holdup assay
Set-up: key: below the threshold = too weak to quantify, mostly under pKd 3.1 to 4
Conditions: plain residues with an end cap or a label only (N-terminal biotin on a linker: ado-ado)

Binder | pKd
B1 | 3.56
B2 | 4.63

Target: T2, SNTG2, Q9NY99
Assay: holdup assay
Set-up: key: below the threshold = too weak to quantify, mostly under pKd 3.1 to 4
Conditions: plain residues with an end cap or a label only (N-terminal biotin on a linker: ado-ado)

Binder | pKd
B1 | below the threshold
B2 | 3.66

Target: CASK, O14936
Assay: holdup assay
Set-up: key: below the threshold = too weak to quantify, mostly under pKd 3.1 to 4
Conditions: plain residues with an end cap or a label only (N-terminal biotin on a linker: ado-ado)

CASK, O14936, sequence (O14936 487-570): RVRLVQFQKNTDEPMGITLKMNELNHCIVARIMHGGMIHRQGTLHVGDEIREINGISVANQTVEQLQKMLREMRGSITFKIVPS

Binder | pKd
B1 | below the threshold
B2 | below the threshold

Target: T3, PTPN13_1, Q12923
Assay: holdup assay
Set-up: key: below the threshold = too weak to quantify, mostly under pKd 3.1 to 4
Conditions: plain residues with an end cap or a label only (N-terminal biotin on a linker: ado-ado)

Binder | pKd
B1 | below the threshold
B2 | below the threshold

Target: GRASP, Q7Z6J2
Assay: holdup assay
Set-up: key: below the threshold = too weak to quantify, mostly under pKd 3.1 to 4
Conditions: plain residues with an end cap or a label only (N-terminal biotin on a linker: ado-ado)

GRASP, Q7Z6J2, sequence (Q7Z6J2 96-193): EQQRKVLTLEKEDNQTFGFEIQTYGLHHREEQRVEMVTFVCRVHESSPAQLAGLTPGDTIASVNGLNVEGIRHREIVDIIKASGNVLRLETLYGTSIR

Binder | pKd
B1 | below the threshold
B2 | 4.02

Target: NHERF4_1, Q86UT5-2
Assay: holdup assay
Set-up: key: below the threshold = too weak to quantify, mostly under pKd 3.1 to 4
Conditions: plain residues with an end cap or a label only (N-terminal biotin on a linker: ado-ado)

NHERF4_1, Q86UT5-2, sequence (Q86UT5 other isoform, or with tags, fused parts or gaps): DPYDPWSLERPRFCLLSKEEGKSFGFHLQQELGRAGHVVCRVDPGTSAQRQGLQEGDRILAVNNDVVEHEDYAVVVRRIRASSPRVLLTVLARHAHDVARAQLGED

Binder | pKd
B1 | below the threshold
B2 | below the threshold

Target: T4, SHANK1, Q9Y566
Assay: holdup assay
Set-up: key: below the threshold = too weak to quantify, mostly under pKd 3.1 to 4
Conditions: plain residues with an end cap or a label only (N-terminal biotin on a linker: ado-ado)

Binder | pKd
B1 | below the threshold
B2 | below the threshold

Target: GRID2IP_2, A4D2P6
Assay: holdup assay
Set-up: key: below the threshold = too weak to quantify, mostly under pKd 3.1 to 4
Conditions: plain residues with an end cap or a label only (N-terminal biotin on a linker: ado-ado)

GRID2IP_2, A4D2P6, sequence (A4D2P6 272-370): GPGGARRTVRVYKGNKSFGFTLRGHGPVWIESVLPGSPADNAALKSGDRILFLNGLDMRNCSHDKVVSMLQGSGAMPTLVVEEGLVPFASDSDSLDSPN

Binder | pKd
B1 | below the threshold
B2 | 3.97

Target: LDB3, O75112
Assay: holdup assay
Set-up: key: below the threshold = too weak to quantify, mostly under pKd 3.1 to 4
Conditions: plain residues with an end cap or a label only (N-terminal biotin on a linker: ado-ado)

LDB3, O75112, sequence (O75112 1-94): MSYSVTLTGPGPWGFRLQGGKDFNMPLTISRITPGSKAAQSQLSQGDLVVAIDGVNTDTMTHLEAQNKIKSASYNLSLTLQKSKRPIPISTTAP

Binder | pKd
B1 | below the threshold
B2 | below the threshold

Target: T5, DFNB31_1, Q9P202
Assay: holdup assay
Set-up: key: below the threshold = too weak to quantify, mostly under pKd 3.1 to 4
Conditions: plain residues with an end cap or a label only (N-terminal biotin on a linker: ado-ado)

Binder | pKd
B1 | below the threshold
B2 | 3.56

Target: T6, PARD3B_1, Q8TEW8
Assay: holdup assay
Set-up: key: below the threshold = too weak to quantify, mostly under pKd 3.1 to 4
Conditions: plain residues with an end cap or a label only (N-terminal biotin on a linker: ado-ado)

Binder | pKd
B1 | below the threshold
B2 | below the threshold

Target: T7, MPP2, Q14168
Assay: holdup assay
Set-up: key: below the threshold = too weak to quantify, mostly under pKd 3.1 to 4
Conditions: plain residues with an end cap or a label only (N-terminal biotin on a linker: ado-ado)

Binder | pKd
B1 | below the threshold
B2 | below the threshold

Target: T8, PDZD7_3, Q9H5P4
Assay: holdup assay
Set-up: key: below the threshold = too weak to quantify, mostly under pKd 3.1 to 4
Conditions: plain residues with an end cap or a label only (N-terminal biotin on a linker: ado-ado)

Binder | pKd
B1 | below the threshold
B2 | 5.22

Target: ARHGEF12, Q9NZN5-2
Assay: holdup assay
Set-up: key: below the threshold = too weak to quantify, mostly under pKd 3.1 to 4
Conditions: plain residues with an end cap or a label only (N-terminal biotin on a linker: ado-ado)

ARHGEF12, Q9NZN5-2, sequence (Q9NZN5 other isoform, or with tags, fused parts or gaps): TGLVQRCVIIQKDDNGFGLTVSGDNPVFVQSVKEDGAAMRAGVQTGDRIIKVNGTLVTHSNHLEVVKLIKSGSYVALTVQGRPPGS

Binder | pKd
B1 | below the threshold
B2 | 4.62

Target: SCRIB_3, Q14160
Assay: holdup assay
Set-up: key: below the threshold = too weak to quantify, mostly under pKd 3.1 to 4
Conditions: plain residues with an end cap or a label only (N-terminal biotin on a linker: ado-ado)

SCRIB_3, Q14160, sequence (Q14160 999-1103): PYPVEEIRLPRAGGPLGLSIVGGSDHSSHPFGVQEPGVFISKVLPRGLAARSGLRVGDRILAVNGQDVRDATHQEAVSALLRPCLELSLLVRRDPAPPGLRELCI

Binder | pKd
B1 | below the threshold
B2 | 3.59

Target: IL16_1, Q14005
Assay: holdup assay
Set-up: key: below the threshold = too weak to quantify, mostly under pKd 3.1 to 4
Conditions: plain residues with an end cap or a label only (N-terminal biotin on a linker: ado-ado)

IL16_1, Q14005, sequence (Q14005 210-306): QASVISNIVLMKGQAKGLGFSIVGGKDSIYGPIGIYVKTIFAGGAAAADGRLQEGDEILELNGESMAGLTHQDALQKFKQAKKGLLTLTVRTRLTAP

Binder | pKd
B1 | below the threshold
B2 | below the threshold

Target: T9, GRIP1_4, Q9Y3R0
Assay: holdup assay
Set-up: key: below the threshold = too weak to quantify, mostly under pKd 3.1 to 4
Conditions: plain residues with an end cap or a label only (N-terminal biotin on a linker: ado-ado)

Binder | pKd
B1 | below the threshold
B2 | below the threshold

Target: T10, SIPA1L2, Q9P2F8
Assay: holdup assay
Set-up: key: below the threshold = too weak to quantify, mostly under pKd 3.1 to 4
Conditions: plain residues with an end cap or a label only (N-terminal biotin on a linker: ado-ado)

Binder | pKd
B1 | below the threshold
B2 | below the threshold

Target: MAGI1_1, Q96QZ7
Assay: holdup assay
Set-up: key: below the threshold = too weak to quantify, mostly under pKd 3.1 to 4
Conditions: plain residues with an end cap or a label only (N-terminal biotin on a linker: ado-ado)

MAGI1_1, Q96QZ7, sequence (Q96QZ7 1-106): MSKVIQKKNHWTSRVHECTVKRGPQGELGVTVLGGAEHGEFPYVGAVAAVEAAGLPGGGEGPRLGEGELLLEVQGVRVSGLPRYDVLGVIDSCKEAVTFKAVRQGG

Binder | pKd
B1 | below the threshold
B2 | below the threshold

Target: T11, DLG3_3, Q92796
Assay: holdup assay
Set-up: key: below the threshold = too weak to quantify, mostly under pKd 3.1 to 4
Conditions: plain residues with an end cap or a label only (N-terminal biotin on a linker: ado-ado)

Binder | pKd
B1 | below the threshold
B2 | 4.2

Target: NHERF2_2, Q15599
Assay: holdup assay
Set-up: key: below the threshold = too weak to quantify, mostly under pKd 3.1 to 4
Conditions: plain residues with an end cap or a label only (N-terminal biotin on a linker: ado-ado)

NHERF2_2, Q15599, sequence (Q15599 142-238): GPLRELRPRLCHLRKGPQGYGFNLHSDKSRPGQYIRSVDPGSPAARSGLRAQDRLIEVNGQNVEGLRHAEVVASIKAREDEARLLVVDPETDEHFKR

Binder | pKd
B1 | below the threshold
B2 | below the threshold

Target: Inadl_9, Q8NI35
Assay: holdup assay
Set-up: key: below the threshold = too weak to quantify, mostly under pKd 3.1 to 4
Conditions: plain residues with an end cap or a label only (N-terminal biotin on a linker: ado-ado)

Inadl_9, Q8NI35, sequence (Q8NI35 1530-1615): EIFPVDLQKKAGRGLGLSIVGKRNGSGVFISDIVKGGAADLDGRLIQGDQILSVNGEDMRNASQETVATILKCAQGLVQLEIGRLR

Binder | pKd
B1 | below the threshold
B2 | below the threshold

Target: MAGI2_6, Q86UL8
Assay: holdup assay
Set-up: key: below the threshold = too weak to quantify, mostly under pKd 3.1 to 4
Conditions: plain residues with an end cap or a label only (N-terminal biotin on a linker: ado-ado)

MAGI2_6, Q86UL8, sequence (Q86UL8 1141-1229): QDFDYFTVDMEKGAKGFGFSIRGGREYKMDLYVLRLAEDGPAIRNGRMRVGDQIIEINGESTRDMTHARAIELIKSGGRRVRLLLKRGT

Binder | pKd
B1 | below the threshold
B2 | below the threshold
